Where two headings read alike, the source gives them in different places. One block for each binder: values may come before it.
Experiments:
human FcγRIIa(R) = target: T1, human FcγRIIa(R) (human, UniProt P12318 36-217); experiment: SPR, pH 7.4, antibody captured by Protein L
T1 construct: also called FcgRIIaR; hFcgRIIa(R)
T1 chain: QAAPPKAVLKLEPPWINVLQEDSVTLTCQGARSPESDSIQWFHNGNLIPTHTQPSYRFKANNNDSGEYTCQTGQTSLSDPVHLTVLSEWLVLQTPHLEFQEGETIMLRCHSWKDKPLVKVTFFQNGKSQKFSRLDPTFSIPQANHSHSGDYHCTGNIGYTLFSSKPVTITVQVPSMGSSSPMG
Procedure: (§1) Interaction of these antibodies with FcγRIIa(R) and FcγRIIb was analyzed using the BIACORE™ T100 surface plasmon resonance system (GE Healthcare). Measurements were carried out at 25° C. using a buffer consisting of 20 mM N-(2-acetamido)-2-aminoethanesulfonic acid (ACES), 150 mM NaCl and 0.05% polysorbate 20 (Tween 20®) (pH 7.4) for the running buffer. The Series S Sensor Chip CM4 (GE Healthcare) was used after immobilizing Protein L by amine coupling. […] Antibody captured on the chip was washed by reacting with 10 mM glycine-HCl (pH 1.5) following measurement, and the chip regenerated in this manner was used repeatedly.
(§2) Measurement results were analyzed using the BIACORE™ Evaluation Software. Antibody was captured by Protein L, and the amount of change in a sensorgram before and after the antibody was captured was defined as X1. […]

human FcγRIIb [1] = target: T2, human FcγRIIb (human, UniProt P31994 43-217, limits assumed); experiment: SPR, pH 7.4, antibody captured by Protein L
T2 construct: also called FcgRIIb; hFcgRIIb
T2 sequence: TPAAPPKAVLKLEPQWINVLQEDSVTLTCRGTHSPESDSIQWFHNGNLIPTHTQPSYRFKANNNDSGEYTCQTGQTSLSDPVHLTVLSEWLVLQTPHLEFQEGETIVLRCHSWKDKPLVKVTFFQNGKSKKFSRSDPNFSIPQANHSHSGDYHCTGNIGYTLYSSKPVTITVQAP
Procedure: as §1, §2

mouse FcRn = target: T3, mouse FcRn (mouse, UniProt Q61559 22-297; P01887 21-119, limits assumed); experiment: SPR, mouse FcRn, pH 7.0
T3 construct: also called mFcRn
T3 sequence (looked up) 1: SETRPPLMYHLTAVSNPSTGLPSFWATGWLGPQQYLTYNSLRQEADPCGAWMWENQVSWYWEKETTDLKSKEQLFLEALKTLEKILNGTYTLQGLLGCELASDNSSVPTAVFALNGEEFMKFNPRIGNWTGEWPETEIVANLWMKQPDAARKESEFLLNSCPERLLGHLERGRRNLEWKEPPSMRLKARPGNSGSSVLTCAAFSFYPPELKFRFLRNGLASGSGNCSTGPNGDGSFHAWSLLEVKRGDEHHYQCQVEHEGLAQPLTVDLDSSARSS
T3 sequence (looked up) 2: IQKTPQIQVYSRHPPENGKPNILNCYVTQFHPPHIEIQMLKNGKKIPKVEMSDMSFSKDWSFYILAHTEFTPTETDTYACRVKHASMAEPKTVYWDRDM

human FcγRIIb [2] = target: T4, human FcγRIIb (human, UniProt P31994 43-217, limits assumed); experiment: SPR (Biacore); ratio against IgG1
T4 construct: also called FcγIIB
T4 sequence: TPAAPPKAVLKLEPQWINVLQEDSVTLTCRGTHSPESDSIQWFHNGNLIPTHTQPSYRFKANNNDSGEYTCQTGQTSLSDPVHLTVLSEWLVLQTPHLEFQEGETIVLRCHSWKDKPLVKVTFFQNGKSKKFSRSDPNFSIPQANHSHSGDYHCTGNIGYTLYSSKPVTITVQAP
Procedure: (§3) Next, interaction between these antibodies and FcγR was analyzed kinetically using the BIACORE™ T100 (GE Healthcare). The interaction was measured at a temperature of 25° C. using HBS-EP+ (GE Healthcare) for the running buffer. The Series S Sensor Chip CMS (GE Healthcare) was used after immobilizing Protein A by amine coupling. […] Antibody captured on the chip was washed by allowing 10 mM glycine-HCl (pH 1.5) to react following measurement. The chip regenerated in this manner was used repeatedly. The dissociation constant KD (mol/L) was calculated from the association rate constant ka (L/mol/s) and dissociation rate constant kd (l/s) as calculated by global-fitting the measurement results with a 1:1 Langmuir binding model using the BIACORE™ Evaluation Software.

human FcγRIIb [3] = target: T4, human FcγRIIb; experiment: SPR (Biacore); KD for FcγRIIaH divided by KD for FcγRIIb of the same antibody
human FcγRIa [4] = target: T5, human FcγRIa (human, UniProt P12314 16-292, limits assumed); experiment: SPR (Biacore), binding amount relative to IL6R-BF648/IL6R-L = 100
T5 construct: also called CD64
T5 sequence (P12314 16-292 limits assumed): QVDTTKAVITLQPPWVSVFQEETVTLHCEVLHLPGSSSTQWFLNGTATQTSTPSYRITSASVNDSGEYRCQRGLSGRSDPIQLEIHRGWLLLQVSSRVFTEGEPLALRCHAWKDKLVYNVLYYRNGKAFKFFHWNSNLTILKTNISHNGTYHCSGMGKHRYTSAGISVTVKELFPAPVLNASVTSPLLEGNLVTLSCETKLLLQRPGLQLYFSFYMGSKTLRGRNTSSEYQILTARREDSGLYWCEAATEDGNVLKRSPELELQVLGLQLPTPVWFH

human FcγRIIb [5] = target: T4, human FcγRIIb; experiment: as above
human FcγRIIIa type V [6] = target: T6, human FcγRIIIa type V (human, UniProt P08637 17-208, limits assumed); experiment: as above
T6 construct: also called FcγRIIIaV; FcγRIIIa(V)
T6 sequence (P08637 other isoform, or with tags, fused parts or gaps limits assumed): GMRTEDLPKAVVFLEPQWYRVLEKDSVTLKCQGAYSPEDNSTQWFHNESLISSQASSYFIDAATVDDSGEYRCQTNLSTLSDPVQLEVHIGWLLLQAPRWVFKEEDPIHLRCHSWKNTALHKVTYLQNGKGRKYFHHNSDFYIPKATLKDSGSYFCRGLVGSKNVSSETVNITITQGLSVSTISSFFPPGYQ

human FcγRIIa type H [7] = target: T7, human FcγRIIa type H (human, UniProt P12318 36-217); experiment: as above
T7 construct: also called FcγRIIaH; FcγRIIa(H)
T7 sequence: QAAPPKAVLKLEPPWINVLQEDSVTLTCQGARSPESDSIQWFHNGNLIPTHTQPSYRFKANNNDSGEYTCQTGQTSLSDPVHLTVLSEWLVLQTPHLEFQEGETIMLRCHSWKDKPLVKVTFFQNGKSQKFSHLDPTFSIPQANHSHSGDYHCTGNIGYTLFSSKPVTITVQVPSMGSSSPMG

human FcγRIIa type R [8] = target: T8, human FcγRIIa type R (human, UniProt P12318 36-217); experiment: as above
T8 construct: also called FcγRIIaR; FcγRIIa(R)
T8 chain: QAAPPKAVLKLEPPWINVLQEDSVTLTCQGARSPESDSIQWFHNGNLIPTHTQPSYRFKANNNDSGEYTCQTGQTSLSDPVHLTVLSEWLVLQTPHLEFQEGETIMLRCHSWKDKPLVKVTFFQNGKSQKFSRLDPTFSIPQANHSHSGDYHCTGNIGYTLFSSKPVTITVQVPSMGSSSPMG

human FcγRIa [9] = target: T5, human FcγRIa; experiment: SPR (Biacore), antibody captured, FcγR as analyte
human FcγRIIb [10] = target: T4, human FcγRIIb; experiment: SPR (Biacore), antibody captured, FcγR as analyte
human FcγRIIIa type V [11] = target: T6, human FcγRIIIa type V; experiment: SPR (Biacore), antibody captured, FcγR as analyte
human FcγRIIa type H [12] = target: T7, human FcγRIIa type H; experiment: SPR (Biacore), antibody captured, FcγR as analyte
human FcγRIIa type R [13] = target: T8, human FcγRIIa type R; experiment: SPR (Biacore), antibody captured, FcγR as analyte
human FcγRIIb [14] = target: T4, human FcγRIIb; experiment: SPR (Biacore), antibody captured, FcγR as analyte; remark: listed apart in the source
Procedure: as §3

human FcγRIIb [15] = target: T4, human FcγRIIb; experiment: SPR (Biacore), antibody captured, FcγR as analyte; remark: listed apart in the source
human FcγRIIb [16] = target: T4, human FcγRIIb; experiment: SPR (Biacore); KD for FcγRIIaR divided by KD for FcγRIIb of the same antibody
human FcγRIIb [17] = target: T4, human FcγRIIb; experiment: SPR (Biacore); ratio against IgG1; remark: listed apart in the source
human FcγRIIb [18] = target: T4, human FcγRIIb; experiment: SPR (Biacore); ratio against parent IL6R-F11/IL6R-L

binding amount (human FcγRIIa(R)): 9.1 RU | binding amount (human FcγRIIb [1]): 64 RU
B1: VH3-IgG1-F652/L(WT)-CK (antibody)
heavy: QVQLQESGPGLVKPSETLSLTCAVSGHSISHDHAWSWVRQPPGEGLEWIGFISYSGITNYNPSLQGRVTISRDNSKNTLYLQMNSLRAEDTAVYYCARSLARTTAMDYWGEGTLVTVSSASTKGPSVFPLAPSSKSTSGGTAALGCLVKDYFPEPVTVSWNSGALTSGVHTFPAVLQSSGLYSLSSVVTVPSSSLGTQTYICNVNHKPSNTKVDKKVEPKSCDKTHTCPPCPAPELLGGDSVFLFPPKPKDTLYISRTPEVTCVVVDVSHEDPEVKFNWYVDGVEVHNAKTKPREEQYNSTYRVVSVLTVLHQDWLNGKEYKCKVSNKALPAPIEKTISKAKGQPREPQVYTLPPSRDELTKNQVSLTCLVKGFYPSDIAVEWESNGQPENNYKTTPPVLDSDGSFFLYSKLTVDKSRWQQGNVFSCSVMHEALHYHYTQKSLSLSP
light: not shown
notes: P238D in VH3-IgG1-F11; copies: 2 + 2

Kd (mouse FcRn): 1.6 nM
B2: antibody with mPM1H-mIgG1-mF3 heavy chain and L(WT)-CK light chain (antibody)
heavy: DVQLQESGPVLVKPSQSLSLTCTVTGYSITSDHAWSWIRQFPGNKLEWMGYISYSGITTYNPSLKSRISITRDTSKNQFFLQLNSVTTGDTSTYYCARSLARTTAMDYWGQGTSVTVSSAKTTPPSVYPLAPGSAAQTNSMVTLGCLVKGYFPEPVTVTWNSGSLSSGVHTFPAVLQSDLYTLSSSVTVPSSTWPSETVTCNVAHPASSTKVDKKIVPRDCGCKPCICTVPEVSSVFIFPPKPKDVLYITLEPKVTCVVVDISKDDPEVQFSWFVDDVEVHTAQTQPREEQFNSTFRSVSELPIMHQDWLNGKEFKCRVNSAAFPAPIEKTISKTKGRPKAPQVYTIPPPKEQMAKDKVSLTCMITDFFPEDITVEWQWNGQPAENYKNTQPIMDTDGSYFVYSKLNVQKSNWEAGNTFTCSVLHEGLKFHHTEKSLSHSPGK
light: not shown
notes: T252Y/T256E/H433K/N434F; copies: 2 + 2

relative KD for FcγRIIb (KD for IgG1/KD for each variant) (human FcγRIIb [2]): 1 | KD(IIaH)/KD(IIb) (human FcγRIIb [3]): 0.3 | relative binding (human FcγRIa [4]): 140 | relative binding (human FcγRIIb [5]): 62 | relative binding (human FcγRIIIa type V [6]): 3350 | relative binding (human FcγRIIa type H [7]): 1670 | relative binding (human FcγRIIa type R [8]): 650 | Kd (human FcγRIa [9]): 0.32 nM | Kd (human FcγRIIb [10]): 2600 nM | Kd (human FcγRIIIa type V [11]): 350 nM | Kd (human FcγRIIa type H [12]): 670 nM | Kd (human FcγRIIa type R [13]): 1000 nM | Kd (human FcγRIIb [14]): 5.3 µM | Kd (human FcγRIIb [15]): 5.3 µM | KD(IIaR)/KD(IIb) (human FcγRIIb [16]): 0.4 | relative KD for FcγRIIb (KD for IgG1/KD for each variant) (human FcγRIIb [17]): 1 | KD(IIb) of parent polypeptide/KD(IIb) of altered polypeptide (human FcγRIIb [18]): 2.6
B3: IL6R-G1d/IL6R-L (antibody, human IgG1)
heavy: not shown
light: DIQMTQSPSSLSASVGDRVTITCRASQDISSYLNWYQQKPGKAPKLLIYYTSRLHSGVPSRFSGSGSGTDFTFTISSLQPEDIATYYCQQGNTLPYTFGQGTKVEIK
notes: Anti-human IL-6 receptor antibody with the G1d constant region (human IgG1 without the C-terminal Gly-Lys); also called IgG1; IgG1 (IL6R-G1d)

— patent publication US20200199241A1 (Chugai, published 2020)
